Measurements taken from patent US20240125796A1.

How the values were obtained:
[1] = molecular target: Herceptin antibody labelled with biotin; assay: mass photometry; consecutive measurement with 25 mM free biotin, release of Herc-B from immobilised streptavidin
[2] = molecular target: Herceptin antibody labelled with biotin; assay: mass photometry; control with PBS as release agent, streptavidin-coated coverslip loaded with Herc-B
[3] = molecular target: Herceptin antibody labelled with biotin; assay: mass photometry; consecutive measurement with 25 mM free biotin, compared with the PBS control
[4] = molecular target: Herceptin antibody labelled with biotin; assay: mass photometry; first 500 s after 25 mM free biotin, compared with the PBS control
[5] = molecular target: Herceptin antibody labelled with biotin; assay: mass photometry; first 500 s after 25 mM free biotin, release of Herc-B from immobilised streptavidin

streptavidin (from UniProt P22629 37-163)
Difference UB - B [1]: 84 counts
Unbinding (UB) events, MW 76 to 273 kDa [1]: 565 counts
Difference UB - B [2]: 17 counts
Unbinding (UB) events, MW 76 to 273 kDa [2]: 161 counts
Percentage increase to control [3]: 79.8%
Percentage increase to control [4]: 90.5%
Difference UB - B [5]: 179 counts
Unbinding (UB) events, MW 76 to 273 kDa [5]: 460 counts
